Data: patent US20220267458A1 (Innovent, published 2022)
Where a chain is given by its changes, count along the chain named.

B1: HzhcIgG-20 (antibody, V domains shown)
VH: QVQLQESGGGLVQPGGSLRLSCAASGYSRTSRWMAWFRQAPGKGLEGVAAIYTGGSSTLYADSVKGRFTISRDNAKNSVYLQMNSLRAEDTAVYYCAADKLAGDFWLVDRWRAWGQGTLVTVSS
notes: Humanized heavy-chain antibody without light chain; also called humanized hcIgG-20; humanized HcIgG
B2: hcIgG-20 (antibody, V domains shown)
VH: QVQLQESGGGSVQAGGSLRLSCASSGYSRTSRWMAWFRQAPGKEREGVAAIYTGGSSTLYANSMADRVTISQDNAKNTVYLRMNNLKPEDTAMYYCAADKLAGDFWLVDRWRAWGQGTQVTVSS
notes: also called heavy-chain antibody of Nb-20
B3: hcIgG-09 (antibody, V domains shown)
VH: QVQLQESGGGLVQPGGSLRLSCGASGFTFSSTAMWWFRQAPGKGLEWVSSITSDVSGTYYADSVQGRFTISRDNGKNTVYLQMNSLRSEDTALYYCATSCGFSGGTWSCKYRGQGTQVTVSS
notes: also called heavy-chain antibody of Nb-09
B4: hcIgG-03 (antibody, V domains shown)
VH: QVQLQESGGGSVQAGGSLRLSCAASGYTYSGYCMGWFRQAPGKEHEGVASIVSGLGRPYYADSVKGRFTISQDNAKNTVYLQMNSLKPEDTAMYYCAAEWATKLCSEIPATEWDYWGQGTQVTVSS
notes: also called heavy-chain antibody of Nb-03
B5: hcIgG-07 (antibody, V domains shown)
VH: QVQLQESGGGLVQAGGSLKLSCTVSGFAFGSSHMSWVRRAPGKGLEWVSTIHSGGGFGDYANSVQGRFTISRDVAKNTLYLQMNSLKPEDTAIYYCALATDWRKPPGQGTQVTVSS
notes: also called heavy-chain antibody of Nb-07
B6: hcIgG-10 (antibody, V domains shown)
VH: B5 VH with A14P, K19R, T23A, V24A
notes: also called heavy-chain antibody of Nb-10
B7: hcIgG-16 (antibody, V domains shown)
VH: QVQLQESGGGSVQAGGSLRLSCAASGYTYNKYSWGWFRQAPGKEREGVAGIDSDGSTSYADSVKGRFTISKDNTKNTLYLQMNSLKPEDTAMYYCAASDWVSAIQALGVLAVRPYEYWGQGTQVTVSS
notes: also called heavy-chain antibody of Nb-16

These binders were tested against GITR protein overexpressed on Hela cells (Hela-GITR-NF-κB-Luc-Rep) (assay: cell-based or functional assay).

**Q.** With B1 as the binder, how does the “EC50 for the activation (NF-κB luciferase reporter)” value read?
**A.** 0.663 nM

**Q.** For B2, which “EC50 for the activation (NF-κB luciferase reporter)” value is on record?
**A.** 0.689 nM

Each binder was assayed against T1, human GITR-His (human, UniProt Q9Y5U5 26-161) (assay: ForteBio BLI, antibody on AHQ tip, human GITR-His 100 nM in solution).
T1 construct: Bought from Acro biosystems; also called GITR-His (Acro biosystems); antigen GITR-His
T1 sequence: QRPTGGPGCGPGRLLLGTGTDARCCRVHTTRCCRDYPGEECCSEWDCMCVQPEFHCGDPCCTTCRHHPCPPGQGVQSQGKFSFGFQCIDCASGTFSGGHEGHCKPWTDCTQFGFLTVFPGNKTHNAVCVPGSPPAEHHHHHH
Protocol: (§1) (2) Experimental procedure: 100 μl of SD buffer and antibodies (hcIgG-02, hcIgG-03, hcIgG-04, hcIgG-07, hcIgG-09, hcIgG-10, hcIgG-16 and hcIgG-20, control antibody), GITR-His (Acro biosystems) were added to a 96-well half-volume black polystyrene microplate. The plate was arranged according to the positions of the samples, the position of the sensor was selected, and the operation procedures were set as: Baseline, Loading ˜1 nm, Baseline, Association and Dissociation, each running for a time depending on the binding and dissociation rates of the sample, at a rotation speed of 400 rpm and a temperature of 30° C.
In this experiment, binding kinetics and affinity for the antibody hcIgG-20 before humanization and the antibody HzhcIgG-20 after humanization were determined using the ForteBio method in the same way as in Example 3. ForteBio results are listed in Table 4. hcIgG-20 and HzhcIgG-20 retain the binding ability to GITRs, and the affinity is higher than the control antibody TRX518.

**Q.** B1 was tested. Which Kd did it give?
**A.** 4 nM

**Q.** What about the koff of the same binder?
**A.** 0.00128 s⁻¹

**Q.** And the kon?
**A.** 321000 M⁻¹ s⁻¹

**Q.** For B2, which Kd is on record?
**A.** 4.35 nM

**Q.** And the koff?
**A.** 0.000917 s⁻¹

**Q.** What about the kon of the same binder?
**A.** 211000 M⁻¹ s⁻¹

The binders below were run against T2, human GITR overexpressed on CHO cells (CHO-GITR) (human, UniProt Q9Y5U5 26-241) (assay: flow cytometry on CHO-GITR cells, PE anti-human Fc detection, MFI).
T2 construct: whole, on cells; also called cell surface GITR protein; antigen expressed on the cell surface
T2 sequence (looked up): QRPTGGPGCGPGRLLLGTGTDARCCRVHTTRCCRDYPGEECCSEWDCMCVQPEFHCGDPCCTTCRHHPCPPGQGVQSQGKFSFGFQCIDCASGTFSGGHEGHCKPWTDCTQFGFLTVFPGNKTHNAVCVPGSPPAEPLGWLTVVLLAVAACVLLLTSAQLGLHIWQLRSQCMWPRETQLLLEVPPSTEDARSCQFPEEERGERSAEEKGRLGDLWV

**Q.** For B1, which “EC50 (read off the curve)” value is on record?
**A.** ~2 nM

**Q.** Which “EC50 (read off the curve)” value does the source give for B2 here?
**A.** ~2 nM

The binders below were run against T1, human GITR-His (assay: ForteBio BLI, antibody on AHQ tip, human GITR-His 100 nM in solution, 1:1 model).
Protocol: as §1
(3) A 1:1 binding model was adopted for kinetic analysis.

**Q.** Which Kd does the source give for B3 here?
**A.** 1.89 nM

**Q.** What about the koff of the same binder?
**A.** 0.000487 s⁻¹

**Q.** And the kon?
**A.** 257000 M⁻¹ s⁻¹

**Q.** With B4 as the binder, how does the Kd read?
**A.** 5.3 nM

**Q.** And the koff?
**A.** 0.00172 s⁻¹

**Q.** And the kon?
**A.** 324000 M⁻¹ s⁻¹

**Q.** What does the source list for B5?
**A.** Kd: 4.08 nM; koff: 0.00099 s⁻¹; kon: 243000 M⁻¹ s⁻¹

**Q.** How did the Kd turn out when B6 was run?
**A.** 3.22 nM

**Q.** What about the koff of the same binder?
**A.** 0.000742 s⁻¹

**Q.** What about the kon of the same binder?
**A.** 231000 M⁻¹ s⁻¹

**Q.** With B7 as the binder, how does the Kd read?
**A.** 9.81 nM

**Q.** What about the koff of the same binder?
**A.** 0.00114 s⁻¹

**Q.** What about the kon of the same binder?
**A.** 117000 M⁻¹ s⁻¹

**Q.** For B2, which Kd is on record?
**A.** 1.85 nM

**Q.** And the koff?
**A.** 0.000646 s⁻¹

**Q.** And the kon?
**A.** 349000 M⁻¹ s⁻¹

The binders below were run against T2, human GITR overexpressed on CHO cells … (assay: flow cytometry on CHO-GITR cells, PE anti-human Fc detection, MFI; direct binding titration, the table row is labelled IC50, nM is taken from the concentration axis).
Protocol: (1) Cell preparation: The pCHO1.0 vector (Invitrogen) carrying human GITR cDNA cloned to a multiple cloning site (MCS) was transfected into Chinese hamster ovary cancer cells (CHO) (Invitrogen) to produce human GITR-overexpressing CHO cells (CHO-GITR), the CHO cells (CHO-GITR) overexpressing human GITR on the surface thereof were counted, and diluted to 1×10⁶ cells/mL, and added to a U-bottom 96-well plate with 100 μL/well.
(1) Detection: The cell suspension was centrifuged at 400 g for 5 min to remove the cell medium. Serial dilutions of the sample were added to a U-shaped plate, and then the cells were resuspended and added to the plate with 100 μL/well. The plate was put onto the ice to stand for 30 min The cell suspension was centrifuged at 400 g for 5 min, and the supernatant was discarded. The cells were washed once with PBS, and then centrifuged at 400 g for 5 min to remove PBS. 100 μL of the solution of PE-conjugated anti-human Fc antibody (Jackson Immuno Research) diluted at a ratio of 1:200 was added to each well, and the cells were incubated in dark on the ice for 30 min The cell suspension was centrifuged at 400 g for 5 min, and the supernatant was discarded. The cells were washed once with PBS. The cells were resuspended with 100 μL of PBS.

**Q.** With B3 as the binder, how does the IC50 read?
**A.** 4.89 nM

**Q.** With B4 as the binder, how does the IC50 read?
**A.** 102 nM

**Q.** With B5 as the binder, how does the IC50 read?
**A.** 1.44 nM

**Q.** For B6, which IC50 is on record?
**A.** 1.47 nM

**Q.** How did the IC50 turn out when B7 was run?
**A.** 34.1 nM

**Q.** Which IC50 does the source give for B2 here?
**A.** 0.511 nM
